B1: Homeobox expressed in ES cells 1, residues 110 to 165; numbered along this chain, Q9UBX0 (parent)
chain: RPRTAFTQNQIEVLENVFRVNCYPGIDIREDLAQKLNLEEDRIQIWFQNRRAKLKR

Variants of: B1
Experiment: abundance fitness (aPCA) (normalised: wild type 0, dead -1); higher = more abundant; growth selection in yeast, the domain comes from the species named
Details: Homo sapiens

Abundance fitness of substitutions, site by site:
Y23: S -0.04 | T -0.137 | V -0.546 | W -0.063
P24: C -1.09 | D -0.606 | E -0.644 | G -0.641 | I -0.662 | K 0.273 | L -0.392 | M -0.815 | Q -0.314 | R -0.995 | V -0.793 | W -0.896 | Y -0.366
G25: A -0.079 | C -0.282 | E -0.065 | H 0.151 | K 0.11 | L -0.874 | M -0.688 | P 0.187 | Q -0.744 | S -0.106 | T -0.027 | V -1.11 | W -0.755 | Y -0.741
I26: A -0.057 | C -0.218 | D -0.297 | E -0.19 | F -0.08 | G -0.319 | K 0.305 | L 0.151 | M -0.38 | N 0.226 | P 0.054 | Q 0.013 | R 0.002 | S -0.078 | T -0.341 | W -0.138 | Y -0.159
D27: A -0.259 | C -0.155 | E 0.075 | G -0.02 | H -0.503 | I -0.484 | K -0.185 | L -0.271 | M -0.134 | N 0.034 | P -0.128 | Q 0.203 | R 0.137 | S 0.233 | V -0.314 | W -0.526
I28: A -0.089 | C -0.534 | E -0.176 | G -0.692 | K -0.852 | L -0.209 | M -0.655 | P -0.725 | Q -0.171 | R -0.667 | S -0.505 | V 0.045 | W -0.577 | Y -0.309
R29: A -0.093 | C -0.019 | D -0.749 | E -1.23 | F -0.198 | G -0.704 | I -0.2 | K -0.691 | L -0.222 | M 0.303 | N -0.864 | P -0.708 | Q -0.299 | S -0.709 | T 0.183 | V 0.011 | W -0.18 | Y -0.284
E30: A -0.023 | C -0.063 | D -0.18 | F 0.048 | G -0.131 | H 0.234 | I 0.099 | K 0.169 | L 0.134 | M -0.189 | N 0.514 | P -0.781 | R 0.196 | S -0.209 | V -0.186 | W -0.002 | Y -0.544
D31: A -0.106 | C -0.468 | F 0.535 | I 0.221 | K 0.679 | L -0.411 | M -0.32 | N 0.066 | P -0.675 | R -0.032 | T -0.568 | V -0.425 | W -0.532 | Y -0.158
L32: A -0.832 | D -0.826 | E -0.824 | F -0.757 | G -0.904 | I -0.363 | K -0.833 | M -0.689 | P -0.884 | Q -0.487 | R -0.886 | S -0.787 | T -0.495 | V -0.685 | W -0.386
A33: C -0.186 | E -0.848 | G -0.242 | I -0.703 | K -0.566 | L -0.89 | M -0.252 | Q 0.36 | S -0.124 | V -0.363 | W -0.694 | Y -0.396
Q34: A -0.423 | D -0.234 | E -0.076 | G -0.168 | H -0.129 | I -0.106 | K -0.119 | L -0.157 | N -0.216 | R 0.135 | S -0.197 | T 0.046 | Y -0.347
K35: C -0.515 | E 0.05 | F -0.603 | G -0.657 | H -0.651 | I -0.468 | M -0.377 | N -0.317 | P -1.15 | Q -0.197 | R -0.194 | S -0.487 | V -0.694 | W -0.743 | Y -0.364
L36: A -1.01 | C -0.508 | D -0.862 | E -0.924 | F 0.221 | G -0.86 | H -0.712 | K -0.931 | M -0.11 | R -0.984 | S -0.855 | V -1.01 | W -0.132
N37: C -0.18 | D -0.151 | E -0.138 | F -0.195 | G 0.093 | H -0.343 | I -0.431 | K -0.032 | L -0.312 | M -0.613 | P -0.051 | Q -0.189 | S -0.459 | T -0.258 | W -0.863 | Y -0.634
L38: A -0.181 | C 0.151 | D -0.665 | E -0.521 | F 0.009 | G -0.952 | I 0.146 | K -0.685 | N -0.572 | P -0.533 | Q -0.223 | R -0.849 | S -0.259 | T 0.077 | V 0.061 | W -0.885 | Y -0.717
E39: A -0.144 | C -0.104 | D 0.333 | G -0.154 | I -1.06 | K -0.476 | L -0.507 | M -0.562 | N -0.241 | Q -0.185 | R -0.34 | S 0.02 | V -0.619 | W -0.752 | Y -0.675
E40: A 0.052 | C -0.348 | D -0.119 | F -0.078 | G -0.399 | H -0.282 | I -0.205 | K -0.611 | L -0.338 | N -0.614 | Q -0.047 | R -0.167 | S -0.162 | T -0.124 | V -0.244 | W -0.928 | Y -0.57
D41: C -0.081 | E 0.08 | F -0.139 | G -0.171 | H -0.039 | I -0.027 | K -0.174 | M -0.174 | N 0.665 | P -0.044 | Q -0.012 | R 0.026 | S 0.115 | T 0.023 | V -0.095 | W 0.055
R42: A 0.076 | C -0.03 | D -0.361 | E 0.255 | G -0.399 | H -0.05 | I 0.055 | K 0.184 | L -0.156 | N 0.049 | Q 0.351 | S 0.096 | T 0.257 | V 0.135 | W 0.065 | Y 0.037
I43: E -0.966 | G -0.98 | K -0.451 | L -0.581 | P -0.912 | Q -0.796 | R -0.936 | S -0.917 | T -0.543 | W -0.822
Q44: A 0.087 | C 0.033 | D -0.007 | E -0.532 | F -0.385 | G -0.206 | H 0.35 | I 0.061 | K 0.179 | L -0.079 | M -0.12 | N -0.059 | P -0.982 | S -0.129 | T 0.038 | V -0.161 | W -0.277 | Y -0.582
I45: C 0.196 | D 0.052 | E 0.079 | F 0.157 | G -0.031 | H -0.166 | K 0.193 | L -0.026 | M -0.049 | N 0.166 | Q 0.108 | R 0.033 | T 0.114 | W 0.444
